# In patent US20050085416A1, “Biologically active complex” (priority 2002, published 2005):
# Where two headings read alike, the source gives them in different places.
# B1: α-lac human: Native human α-lactalbumin purified from human milk (protein, UniProt P00709 20-142, looked up)
# Alpha-lactalbumin: KQFTKCELSQLLKDIDGYGGIALPELICTMFHTSGYDTQAIVENNESTEYGLFQISNKLWCKSSQVPQSRNICDISCDKFLDDDITDDIMCAKKILDIKGIDYWLAHKALCTEKLEQWLCEKL
# Experiments:
# [1] = cited from earlier work
# [2] = Ca2+ titration in the presence of chromophoric chelator quin 2; type: binding; conditions: for Ka, calcium association constant: 2 mM Tris/HCl, chelator quin 2; for Kd: read-out: KD, calcium
# Text: To study the Ca^2+ binding equilibrium, the proteins listed in table 1 including the D87A BAMLET obtained as described in Example 7, and HAMLET, was titrated with calcium in the presence of a chromophoric chelator, quin 2, for which the absorbance at 263 nm decreases (approx. 85%) upon Ca^2+-binding. The method relies on competition for calcium between the protein and chelator, and can be used to quantitate high affinity sites (ca. 10^7-5·10^9 M^−1 at low salt, and ca. 5 10^5-1·10^8 M^−1 at 0.15 NaCl) when quin 2 is the chelator. The exact concentration of the chelator solution (in the range of 25-30 μM) was calculated from the absorbance at 239.5 nm in the presence of excess calcium (using ε239.5=4.2×10^4 L mol^−1 cm^−1 for quin 2). Lyophilised protein was dissolved in calcium free (<1 μM Ca^2+) chelator solution at a concentration of 25-30 μM. The absorbance at 263 nm (A263) was recorded for the protein/chelator solution using a UV/Vis 920 spectrophotometer (GBC Scientific Equipment Pty Ltd, Victoria, Australia). Calcium solution (3 mM CaCl2 in 2 mM Tris/HCl, pH 7.5, with or without 0.15 M NaCl) was added in portions of 4 μl. A263 was recorded after each calcium addition.
# A more concentrated Ca^2+ stock (10 mM) was used at the end of the titrations of the proteins in 0.15 M NaCl. The data was analysed by least squares fitting directly to the measured quantity, absorbance versus total calcium concentration, using the CaLigator software (Andre and Linse, 2002).
# [3] = 20° C.; cited from earlier work
molecule,measurement,setting,value
B1,Ka,"[1]; 5 mM Tris, 0.1 mM EDTA, pH 7.2, 298 K, CD 270 nm",3e+08 M⁻¹
same,Ka,"[1]; H2O, 100 mM KCl, pH 7, 294 K, EDTA, 43Ca-NMR",2e+07 M⁻¹
same,factor of decrease of Ca2+ affinity between low and physiological ionic strength,[2],200
same,"Ka, calcium association constant",[2]; 150 mM NaCl (physiological salt),8.3e+06 M⁻¹
same,"Ka, calcium association constant","[2]; 150 mM NaCl (physiological salt), listed as α-lactalbumin",8.3e+06 M⁻¹
same,"Ka, calcium association constant",[2]; low salt (no added salt),1.8e+09 M⁻¹
same,"Ka, calcium association constant","[2]; low salt (no added salt), listed as α-lactalbumin",1.8e+09 M⁻¹
same,Kd,[2]; low salt,0.56 nM
same,Kd,"[2]; physiological salt, 0.15 M NaCl",120 nM
same,Ka for Na+,[3],100 M⁻¹
